Columns and labels:
CHN-1 (C. elegans) [1] = experiment: SEC; S200 Superdex column; CHN-1 alone, UFD-2 alone and CHN-1 + UFD-2 mixed in equal molar ratios
CHN-1 (C. elegans) [2] = biological target: CHN-1 (C. elegans)
Target sequence in this assay (main, as listed by the source): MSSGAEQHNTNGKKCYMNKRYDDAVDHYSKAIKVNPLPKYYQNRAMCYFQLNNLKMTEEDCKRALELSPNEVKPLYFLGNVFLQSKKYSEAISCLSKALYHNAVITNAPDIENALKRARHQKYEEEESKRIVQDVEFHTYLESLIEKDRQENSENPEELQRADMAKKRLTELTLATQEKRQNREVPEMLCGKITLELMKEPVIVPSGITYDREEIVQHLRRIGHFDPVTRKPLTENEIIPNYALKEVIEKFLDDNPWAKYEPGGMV

UFD-2, sequence (Q09349 whole entry): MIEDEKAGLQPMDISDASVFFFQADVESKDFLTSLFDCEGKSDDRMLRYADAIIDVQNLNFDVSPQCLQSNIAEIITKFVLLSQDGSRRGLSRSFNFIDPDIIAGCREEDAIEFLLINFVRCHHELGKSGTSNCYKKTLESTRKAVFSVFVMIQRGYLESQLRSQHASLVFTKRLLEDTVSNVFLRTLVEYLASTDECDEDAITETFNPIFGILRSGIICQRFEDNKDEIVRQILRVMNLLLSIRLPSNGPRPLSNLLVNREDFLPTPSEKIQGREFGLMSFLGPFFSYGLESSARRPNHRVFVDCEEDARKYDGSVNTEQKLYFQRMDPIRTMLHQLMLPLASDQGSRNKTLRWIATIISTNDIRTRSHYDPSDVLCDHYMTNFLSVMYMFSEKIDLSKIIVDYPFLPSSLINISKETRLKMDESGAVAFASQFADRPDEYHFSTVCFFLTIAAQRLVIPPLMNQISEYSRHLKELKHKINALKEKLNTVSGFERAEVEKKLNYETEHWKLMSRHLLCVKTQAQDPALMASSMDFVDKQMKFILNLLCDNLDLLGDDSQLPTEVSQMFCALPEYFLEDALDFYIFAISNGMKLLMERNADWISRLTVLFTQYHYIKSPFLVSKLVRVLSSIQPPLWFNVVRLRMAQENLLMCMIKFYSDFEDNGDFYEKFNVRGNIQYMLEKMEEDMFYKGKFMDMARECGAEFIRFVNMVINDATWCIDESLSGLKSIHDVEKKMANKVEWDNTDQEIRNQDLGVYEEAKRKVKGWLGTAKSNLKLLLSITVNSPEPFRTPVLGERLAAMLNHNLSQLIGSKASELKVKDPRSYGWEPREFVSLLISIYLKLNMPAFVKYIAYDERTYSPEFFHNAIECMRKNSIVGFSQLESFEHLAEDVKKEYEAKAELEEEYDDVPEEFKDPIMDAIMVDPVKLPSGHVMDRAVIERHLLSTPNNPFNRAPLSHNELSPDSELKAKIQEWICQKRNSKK

| stoichiometry N (CHN-1 (C. elegans) [1]) | CHN-1 auto-ubiquitylation (UBE2D1); UFD-2 titrated at 0.3, 0.65 and 1.3 μM against 1.3 μM CHN-1 (CHN-1 (C. elegans) [2]) | Substance |
| --- | --- | --- |
| 2 | – | CHN-1 (enzyme) |
| – | 2 fold | UFD-2 (from UniProt Q09349 1-984) (enzyme) |
